Results: PMC12098658, “JMY powers dendritogenesis and is regulated by CaM revealing a general, critical principle in neuromorphogenesis” (Communications Biology, 2025)

Experiments:
Details in all cases: both partners purified
Sepharose 4B-coupled CaM = biological target: T1, Sepharose 4B-coupled CaM (UniProt P0DP23 1-149, coupled to Sepharose 4B); assay: pull-down; purified GST-JMY WH2#1 or GST with immobilised CaM; IP buffer with 150 mM NaCl and 2 µM Ca2+ (1 mM EGTA for comparison); immunoblot
T1 construct: calmodulin (CaM), bought coupled to Sepharose 4B; also called immobilized CaM; CaM matrix; source: bought: GE Healthcare (coupled to Sepharose 4B)

untagged recombinant CaM = biological target: T2, untagged recombinant CaM (UniProt P0DP23 1-149); assay: pull-down; in vitro reconstitution: GST-JMY WH2#1 immobilised, untagged CaM and rabbit skeletal muscle α-actin together; 10 mM HEPES pH 7.4, 250 mM NaCl, 0.1 mM MgCl2, 1% Triton X-100, with 1 mM EGTA or 20 µM Ca2+; quantitative fluorescence immunoblot
T2 construct: calmodulin (CaM), subcloned from Mito-mCherry-CaM into pGEX-6P; A few vector residues probably remain after PreScission cleavage; also called calmodulin; source: E. coli BL21, purified as GST-CaM (pGEX-6P), GST removed with PreScission Protease

[1] = biological target: rabbit skeletal muscle actin (rabbit, UniProt P68135 1-377); assay: as above

Measured: binding result

B1: GST-JMY WH2#1 (domain or fragment)
chain: GNERSIPKSASAPAAHLFDSSQLVSARKKLRKTVEGLQRRRVS
notes: Mus musculus JMY, NP_067285.2, residues 841-883 (subcloned from GFP-JMY WH2#1 into pGEX-4T1); pGEX-4T1 by surmise puts GST at the N-terminus; also called first WH2 domain of JMY and flanking regions; source: E. coli BL21, purified (glutathione sepharose)
binds: Sepharose 4B-coupled CaM | untagged recombinant CaM | [1]
